Legend:
[1] = molecular target: PD-1 and LAG-3 on CD4+ and CD8+ cells of patients' peripheral blood; test: receptor occupancy by flow cytometry on patients' whole blood, CD8+ cells; Emax model
[2] = molecular target: PD-1 and LAG-3 on CD4+ and CD8+ cells of patients' peripheral blood; test: receptor occupancy by flow cytometry on patients' whole blood, CD4+ cells; Emax model of % binding against DART-I concentration
[3] = molecular target: PD-1 and LAG-3 on CD4+ and CD8+ cells of patients' peripheral blood; test: receptor occupancy by flow cytometry on patients' whole blood, CD8+ cells; Emax model of % binding against DART-I concentration
[4] = molecular target: PD-1 and LAG-3 on CD4+ and CD8+ cells of patients' peripheral blood; test: receptor occupancy by flow cytometry on patients' whole blood, CD4+ cells; Emax model

B1: DART-I (bispecific antibody, human IgG4 S228P)
chain 1: DIQMTQSPSSLSASVGDRVTITCRASQDVSSVVAWYQQKPGKAPKLLIYSASYRYTGVPSRFSGSGSGTDFTLTISSLQPEDFATYYCQQHYSTPWTFGGGTKLEIKGGGSGGGGQVQLVQSGAEVKKPGASVKVSCKASGYSFTSYWMNWVRQAPGQGLEWIGVIHPSDSETWLDQKFKDRVTITVDKSTSTAYMELSSLRSEDTAVYYCAREHYGTSPFAYWGQGTLVTVSSGGCGGGEVAACEKEVAALEKEVAALEKEVAALEKESKYGPPCPPCPAPEFLGGPSVFLFPPKPKDTLYITREPEVTCVVVDVSQEDPEVQFNWYVDGVEVHNAKTKPREEQFNSTYRVVSVLTVLHQDWLNGKEYKCKVSNKGLPSSIEKTISKAKGQPREPQVYTLPPSQEEMTKNQVSLTCLVKGFYPSDIAVEWESNGQPENNYKTTPPVLDSDGSFFLYSRLTVDKSRWQEGNVFSCSVMHEALHNHYTQKSLSLSLG
chain 2: EIVLTQSPATLSLSPGERATLSCRASESVDNYGMSFMNWFQQKPGQPPKLLIHAASNQGSGVPSRFSGSGSGTDFTLTISSLEPEDFAVYFCQQSKEVPYTFGGGTKVEIKGGGSGGGGQVQLVQSGAEVKKPGASVKVSCKASGYTFTDYNMDWVRQAPGQGLEWMGDINPDNGVTIYNQKFEGRVTMTTDTSTSTAYMELRSLRSDDTAVYYCAREADYFYFDYWGQGTTLTVSSGGCGGGKVAACKEKVAALKEKVAALKEKVAALKE
concentration at which 90% of max RO is achieved [1]: 0.1 µg/mL | EC50 [2]: 0.045 µg/mL | EC50 [3]: 0.011 µg/mL | concentration at which 90% of max RO is achieved [4]: 0.6 µg/mL

— US20230056230A1
